Reference: patent US20230384326A1 (CANON MEDICAL SYSTEMS, published 2023)

What was measured:
mCRP (99) peptide [1] = target: T1, mCRP (99) peptide (human); experiment: solid phase peptide ELISA
T1 peptide: EILFEVPEVTC
Method: (§1) Epitope analysis was performed by the following procedure. [0200] (a) Peptides were immobilized on a plate by standing at 50 ng/well (50 μL/well) for 16 hours at 4° C. […] (b) Solid phase peptides were washed twice with Dulbecco's PBS (D-PBS) (200 μL/well). […] (c) Blocking was performed by adding 200 μL of D-PBS containing 0.1% BSA and 0.05% NaN₃ to each well and leaving it at 4° C. overnight. […] (d) Each well was washed twice with the washing buffer. [0204] (e) The antibody was diluted to 1 μg/mL with the dilution buffer and the diluted solution was added to each well (50 μL/well) and left at 37° C. for 30 minutes. […] (f) Each well was washed four or more times with the washing buffer. […] (g) Anti-mouse IgG (γ-specific)-HRP, a labeled antibody, was added to each well (50 μL/well) and left at 37° C. for 30 minutes. [0207] (h) Each well was washed four or more times with the washing buffer. […] (i) A chromogenic reaction was started by adding a substrate solution (400 μg/mL) to each well (100 μL/well), and the reaction was allowed to proceed for 15 minutes at room temperature in the dark. [0209] (j) After 15 minutes, the reaction was stopped by addition of 1 mol/L sulfuric acid (100 μL/well), and absorbance (490 nm) was measured.
In the above (e), the same result was obtained even when the antibody concentration added to each well was changed to 5 μg/mL. […]

mCRP (151-180) peptide = target: T2, mCRP (151-180) peptide (human); experiment: solid phase peptide ELISA (part 2)
T2 peptide: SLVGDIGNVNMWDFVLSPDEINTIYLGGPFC

mCRP (121-150) peptide = target: T3, mCRP (121-150) peptide (human); experiment: solid phase peptide ELISA (part 2)
T3 peptide: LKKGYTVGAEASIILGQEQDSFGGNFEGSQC

mCRP (31-60) peptide = target: T4, mCRP (31-60) peptide (human); experiment: solid phase peptide ELISA (part 2)
T4 peptide: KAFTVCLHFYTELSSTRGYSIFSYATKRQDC

mCRP (61-90) peptide = target: T5, mCRP (61-90) peptide (human); experiment: solid phase peptide ELISA (part 2)
T5 peptide: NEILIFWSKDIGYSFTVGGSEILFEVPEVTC

mCRP (181-206) peptide = target: T6, mCRP (181-206) peptide (human); experiment: solid phase peptide ELISA (part 2)
T6 peptide: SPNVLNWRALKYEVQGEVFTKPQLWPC

mCRP (99) peptide [2] = target: T1, mCRP (99) peptide; experiment: solid phase peptide ELISA, antibody 1 ug/mL
Method: as §1
(§2) In the above (e), the same result was obtained even when the antibody concentration added to each well was changed to 5 μg/mL. […] Accordingly, it is believed that there are not only one kind of epitope but also a plurality of kinds of epitopes of human denatured CRP-specific monoclonal antibodies.

mCRP (79) peptide = target: T7, mCRP (79) peptide (human); experiment: solid phase peptide ELISA, antibody 1 ug/mL
T7 peptide: NEILIFWSKDC
Method: as §1, §2

mCRP (169) peptide = target: T8, mCRP (169) peptide (human); experiment: solid phase peptide ELISA, antibody 1 ug/mL
T8 peptide: SLVGDIGNVNC
Method: as §1, §2

mCRP (179) peptide = target: T9, mCRP (179) peptide (human); experiment: solid phase peptide ELISA, antibody 1 ug/mL
T9 peptide: MWDFVLSPDEC
Method: as §1, §2

mCRP (49) peptide = target: T10, mCRP (49) peptide (human); experiment: solid phase peptide ELISA, antibody 1 ug/mL
T10 peptide: KAFTVCLHFYC
Method: as §1, §2

mCRP (119) peptide = target: T11, mCRP (119) peptide (human); experiment: solid phase peptide ELISA, antibody 1 ug/mL
T11 peptide: ESASGIVEFWC
Method: as §1, §2

mCRP (149) peptide = target: T12, mCRP (149) peptide (human); experiment: solid phase peptide ELISA, antibody 1 ug/mL
T12 peptide: ASIILGQEQDC
Method: as §1, §2

mCRP (109) peptide = target: T13, mCRP (109) peptide (human); experiment: solid phase peptide ELISA, antibody 1 ug/mL
T13 peptide: VAPVHICTSWC
Method: as §1, §2

mCRP (59) peptide = target: T14, mCRP (59) peptide (human); experiment: solid phase peptide ELISA, antibody 1 ug/mL
T14 peptide: TELSSTRGYSC
Method: as §1, §2

mCRP (209) peptide = target: T15, mCRP (209) peptide (human); experiment: solid phase peptide ELISA, antibody 1 ug/mL
T15 peptide: KYEVQGEVFTKPQLWPC
Method: as §1, §2

mCRP (39) peptide = target: T16, mCRP (39) peptide (human); experiment: solid phase peptide ELISA, antibody 1 ug/mL
T16 peptide: SLKAPLTKPLC
Method: as §1, §2

mCRP (89) peptide = target: T17, mCRP (89) peptide (human); experiment: solid phase peptide ELISA, antibody 1 ug/mL
T17 peptide: IGYSFTVGGSC
Method: as §1, §2

mCRP (29) peptide = target: T18, mCRP (29) peptide (human); experiment: solid phase peptide ELISA, antibody 1 ug/mL
T18 peptide: FPKESDTSYVC
Method: as §1, §2

mCRP (199) peptide = target: T19, mCRP (199) peptide (human); experiment: solid phase peptide ELISA, antibody 1 ug/mL
T19 peptide: SPNVLNWRALC
Method: as §1, §2

mCRP (129) peptide = target: T20, mCRP (129) peptide (human); experiment: solid phase peptide ELISA, antibody 1 ug/mL
T20 peptide: VDGKPRVRKSC
Method: as §1, §2

mCRP (159) peptide = target: T21, mCRP (159) peptide (human); experiment: solid phase peptide ELISA, antibody 1 ug/mL
T21 peptide: SFGGNFEGSQC
Method: as §1, §2

mCRP (189) peptide = target: T22, mCRP (189) peptide (human); experiment: solid phase peptide ELISA, antibody 1 ug/mL
T22 peptide: INTIYLGGPFC
Method: as §1, §2

mCRP (139) peptide = target: T23, mCRP (139) peptide (human); experiment: solid phase peptide ELISA, antibody 1 ug/mL
T23 peptide: LKKGYTVGAEC
Method: as §1, §2

mCRP (69) peptide = target: T24, mCRP (69) peptide (human); experiment: solid phase peptide ELISA, antibody 1 ug/mL
T24 peptide: IFSYATKRQDC
Method: as §1, §2

mCRP (19) peptide = target: T25, mCRP (19) peptide (human); experiment: solid phase peptide ELISA, antibody 1 ug/mL
T25 peptide: QTDMSRKAFVC
Method: as §1, §2

B1: human denatured CRP-specific antibody produced from hybridoma mCRP-18A (antibody, mouse IgG2a)
heavy: EVQLQQSGAEFVKPGTSVKLSCTASGFNIKDYYIHWVKQRTEQGLEWIGRIDPEDGETKYAPKFQGKATITADASSNTAYLQLSSLTSEDTAVYYCVSRMYYYGSQGLFDFWGQGTTLTVSSAKTTAPSVYPLAPVCGGTTGSSVTLGCLVKGYFPEPVTLTWNSGSLSSGVHTFPALLQSGLYTLSSSVTVTSNTWPSQTITCNVAHPASSTKVDKKIEPRVPITQNPCPPLKECPPCAAPDLLGGPSVFIFPPKIKDVLMISLSPMVTCVVVDVSEDDPDVQISWFVNNVEVHTAQTQTHREDYNSTLRVVSALPIQHQDWMSGKEFKCKVNNRALPSPIEKTISKPRGPVRAPQVYVLPPPAEEMTKKEFSLTCMITGFLPAEIAVDWTSNGRTEQNYKNTATVLDSDGSYFMYSKLRVQKSTWERGSLFACSVVHEGLHNHLTTKTISHSPGK
light: DIVMTQSPSSLTVTAGEKVTMGCKSSQSLLNSANQKNYLTWYRQKPGQPPKLLIYWASTRESGVPDRFTGSGSGTDFTLTISSVQAEDLAVYYCQNDYNYPLTCGAGTKLDLKRADAAPTVSIFPPSSEQLTSGGASVVCFLNNFYPKDINVKWKIDGSERQNGVLNSWTDQDSKDSTYSMSSTLTLTKDEYERHNSYTCEATHKTSTSPIVKSFNRNEC
notes: Mouse IgG2a, kappa; also called 18A antibody
B1: no binding (mCRP (99) peptide [1]).

B2: human denatured CRP-specific antibody produced from hybridoma mCRP-12C (antibody, mouse IgG1, V domains shown)
VH: EVQLQQSGAELVKPGASVKLSCTASGFNIKDYYIHWVKQRTDQGLEWIGRIDPEDDETKYAPKFQGKATIITDTSSNTAYLHLSSLTSADTAVYYCASRIYYYDIKGLFDYWGQGTTLTVSS
VL: DIVMTQAPSSLTVTAGEKVTMTCKSSQSLLNSGNQKNYLTWSQQKPGQPPKLLIYWASTRESGVPDRFTGSGSGTDFTLTISSVQAEDLAVYYCQNDYNYPITFGAGTKLELKR
notes: Mouse IgG1, kappa; also called 12C antibody
B2: no binding (mCRP (99) peptide [1]).

B3: human denatured CRP-specific antibody produced from hybridoma mCRP-3C (antibody, mouse IgG2b, V domains shown)
VH: QVQLQQSGAELVRPGASVKLSCKALDYTFTDYEMHWVKQTPVHGLEWIGAIHPGRGGTAYNQKFKGKATLTADKSSSTAYMELSSLTSEDSGVYYCTSYHGGYWGQGTTLTVSS
VL: DVVMTQTPLSLPVSLGDQASISCRSSQSLVHSNENTYLLWYLQKPGQSPKLLIYKVSNRFSGVPDRFSGSGSGTDFTLKISRVEAEDLGVYFCSQTTHVPWTFGGGTKLEIKR
notes: Mouse IgG2b, kappa; also called 3C antibody
B3 was tested, and the “Absorbance (490 nm)” value (mCRP (151-180) peptide) was 0.108 A490, the “Absorbance (490 nm)” value (mCRP (121-150) peptide) was 0.017 A490 and the “Absorbance (490 nm)” value (mCRP (31-60) peptide) was 0.03 A490. For the same binder, the “Absorbance (490 nm)” value (mCRP (61-90) peptide) was 1.98 A490, the “Absorbance (490 nm)” value (mCRP (181-206) peptide) was 0.006 A490 and the “Absorbance (490 nm)” value (mCRP (99) peptide [2]) was 1.58 A490. The “Absorbance (490 nm)” value (mCRP (79) peptide) was 0 A490, the “Absorbance (490 nm)” value (mCRP (169) peptide) was 0.001 A490 and the “Absorbance (490 nm)” value (mCRP (179) peptide) was 0.003 A490. The “Absorbance (490 nm)” value (mCRP (49) peptide) was 0 A490, the “Absorbance (490 nm)” value (mCRP (119) peptide) was 0.005 A490 and the “Absorbance (490 nm)” value (mCRP (149) peptide) was 0.001 A490. The “Absorbance (490 nm)” value (mCRP (109) peptide) was -0.001 A490, the “Absorbance (490 nm)” value (mCRP (59) peptide) was 0.001 A490 and the “Absorbance (490 nm)” value (mCRP (209) peptide) was 0 A490. The “Absorbance (490 nm)” value (mCRP (39) peptide) was 0.001 A490, the “Absorbance (490 nm)” value (mCRP (89) peptide) was 0 A490 and the “Absorbance (490 nm)” value (mCRP (29) peptide) was -0.001 A490. The “Absorbance (490 nm)” value (mCRP (199) peptide) was 0.006 A490, the “Absorbance (490 nm)” value (mCRP (129) peptide) was 0.002 A490 and the “Absorbance (490 nm)” value (mCRP (159) peptide) was 0.002 A490. The “Absorbance (490 nm)” value (mCRP (189) peptide) was 0.007 A490, the “Absorbance (490 nm)” value (mCRP (139) peptide) was 0.002 A490 and the “Absorbance (490 nm)” value (mCRP (69) peptide) was 0.002 A490. The “Absorbance (490 nm)” value (mCRP (19) peptide) was 0.004 A490.
